Test results taken from patent US20220348632A1 (Novartis, published 2022).

Key:
[1] = target: T1, mouse Rae-1ε over-expressed on CT26.WT cells (mouse, UniProt Q9CZQ6 29-225); test: flow cytometry titration on CT26.WT cells over-expressing mouse Rae-1ε; R-PE anti-mouse Fc detection, mean R-PE fluorescence
T1 construct: whole, on cells; also called mouse RAE-1 epsilon; Rae-1E
T1 sequence (looked up): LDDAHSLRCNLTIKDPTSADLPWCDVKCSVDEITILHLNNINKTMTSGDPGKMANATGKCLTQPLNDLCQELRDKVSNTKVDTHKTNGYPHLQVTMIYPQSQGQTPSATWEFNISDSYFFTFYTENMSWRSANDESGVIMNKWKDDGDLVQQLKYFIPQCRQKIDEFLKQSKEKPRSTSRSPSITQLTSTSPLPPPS
Method: (§1) A […] cell sorting (FACS) based binding assay against mouse NKG2D-ligands expressed at the cell surface was performed to characterize the binding of the dimeric mouse NKG2D-Fc variants fused either to N-terminus or to C-terminus of the Fc region with no peptide linker or with different peptide linker lengths (10, 20 or 30 amino acids).
(§2) Half maximal effective concentration (EC50) in nM was determined on two different engineered stable CT26.WT cell lines, over-expressing at their surface the recombinant ligands mouse Rae-1α and mouse Rae-1E. The cells were incubated with the different concentrations of protein in DPBS supplemented with 5% FCS and 0.04% NaN₃ (FACS buffer). […] For each sample, the mean of the resulting fluorescence of alive gated cells was extracted using the Cell Quest Pro software (BD Biosciences).

[2] = target: T2, mouse Rae-1α over-expressed on CT26.WT cells (mouse, UniProt O08602 29-229); test: flow cytometry titration on CT26.WT cells over-expressing mouse Rae-1α; R-PE anti-mouse Fc detection, mean R-PE fluorescence
T2 construct: whole, on cells; also called mouse RAE-1alpha; Rae-1a
T2 sequence (looked up): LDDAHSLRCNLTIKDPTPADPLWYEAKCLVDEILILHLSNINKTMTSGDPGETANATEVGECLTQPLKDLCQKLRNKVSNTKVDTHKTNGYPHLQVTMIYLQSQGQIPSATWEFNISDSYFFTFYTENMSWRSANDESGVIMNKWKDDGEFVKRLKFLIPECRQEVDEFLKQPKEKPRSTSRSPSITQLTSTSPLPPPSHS
Method: as §1, §2

Row | Binder | EC50 [1] [nM] | EC50 [2] [nM]
1 | MM1, mNKG2D (aa94-232)-RS(G3S)2-mNKG2D (aa94-232)-mFc2 (Fc fusion, also called mouse NKG2D-Fc surrogate construct, N-terminal, no linker) FQPVLCNKEVPVSSREGYCGPCPNNWICHRNNCYQFFNEEKTWNQSQASCLSQNSSLLKIYSKEEQDFLKLVKSYHWMGLVQIPANGSWQWEDGSSLSYNQLTLVEIPKGSCAVYGSSFKAYTEDCANLNTYICMKRAVRSGGGSGGGSFQPVLCNKEVPVSSREGYCGPCPNNWICHRNNCYQFFNEEKTWNQSQASCLSQNSSLLKIYSKEEQDFLKLVKSYHWMGLVQIPANGSWQWEDGSSLSYNQLTLVEIPKGSCAVYGSSFKAYTEDCANLNTYICMKRAVISAMVRSPRGPTIKPCPPCKCPAPNLLGGPSVFIFPPKIKDVLMISLSPIVTCVVVDVSEDDPDVQISWFVNNVEVHTAQTQTHREDYNSTLRVVSALPIQHQDWMSGKEFKCKVNNKDLPAPIERTISKPKGSVRAPQVYVLPPPEEEMTKKQVTLTCMVTDFMPEDIYVEWTNNGKTELNYKNTEPVLDSDGSYFMYSKLRVEKKNWVERNSYSCSVVHEGLHNHHTTKSFSRTPGK | 2.56 | 1.05
2 | MM2, mNKG2D (aa94-232)-RS(G3S)2-mNKG2D (aa94-232)-(G4S)2-mFc2 (Fc fusion, also called N-terminal, 10 aa linker) FQPVLCNKEVPVSSREGYCGPCPNNWICHRNNCYQFFNEEKTWNQSQASCLSQNSSLLKIYSKEEQDFLKLVKSYHWMGLVQIPANGSWQWEDGSSLSYNQLTLVEIPKGSCAVYGSSFKAYTEDCANLNTYICMKRAVRSGGGSGGGSFQPVLCNKEVPVSSREGYCGPCPNNWICHRNNCYQFFNEEKTWNQSQASCLSQNSSLLKIYSKEEQDFLKLVKSYHWMGLVQIPANGSWQWEDGSSLSYNQLTLVEIPKGSCAVYGSSFKAYTEDCANLNTYICMKRAVGGGGSGGGGSISAMVRSPRGPTIKPCPPCKCPAPNLLGGPSVFIFPPKIKDVLMISLSPIVTCVVVDVSEDDPDVQISWFVNNVEVHTAQTQTHREDYNSTLRVVSALPIQHQDWMSGKEFKCKVNNKDLPAPIERTISKPKGSVRAPQVYVLPPPEEEMTKKQVTLTCMVTDFMPEDIYVEWTNNGKTELNYKNTEPVLDSDGSYFMYSKLRVEKKNWVERNSYSCSVVHEGLHNHHTTKSFSRTPGK | 1.87 | 1.27
3 | MM3, mNKG2D (aa94-232)-RS(G3S)2-mNKG2D (aa94-232)-(G4S)4-mFc2 (Fc fusion, also called N-terminal, 20 aa linker) FQPVLCNKEVPVSSREGYCGPCPNNWICHRNNCYQFFNEEKTWNQSQASCLSQNSSLLKIYSKEEQDFLKLVKSYHWMGLVQIPANGSWQWEDGSSLSYNQLTLVEIPKGSCAVYGSSFKAYTEDCANLNTYICMKRAVRSGGGSGGGSFQPVLCNKEVPVSSREGYCGPCPNNWICHRNNCYQFFNEEKTWNQSQASCLSQNSSLLKIYSKEEQDFLKLVKSYHWMGLVQIPANGSWQWEDGSSLSYNQLTLVEIPKGSCAVYGSSFKAYTEDCANLNTYICMKRAVGGGGSGGGGSGGGGSGGGGSISAMVRSPRGPTIKPCPPCKCPAPNLLGGPSVFIFPPKIKDVLMISLSPIVTCVVVDVSEDDPDVQISWFVNNVEVHTAQTQTHREDYNSTLRVVSALPIQHQDWMSGKEFKCKVNNKDLPAPIERTISKPKGSVRAPQVYVLPPPEEEMTKKQVTLTCMVTDFMPEDIYVEWTNNGKTELNYKNTEPVLDSDGSYFMYSKLRVEKKNWVERNSYSCSVVHEGLHNHHTTKSFSRTPGK | 1.99 | 0.495
4 | MM4, mNKG2D (aa94-232)-RS(G3S)2-mNKG2D (aa94-232)-(G4S)6-mFc2 (Fc fusion, also called N-terminal, 30 aa linker) FQPVLCNKEVPVSSREGYCGPCPNNWICHRNNCYQFFNEEKTWNQSQASCLSQNSSLLKIYSKEEQDFLKLVKSYHWMGLVQIPANGSWQWEDGSSLSYNQLTLVEIPKGSCAVYGSSFKAYTEDCANLNTYICMKRAVRSGGGSGGGSFQPVLCNKEVPVSSREGYCGPCPNNWICHRNNCYQFFNEEKTWNQSQASCLSQNSSLLKIYSKEEQDFLKLVKSYHWMGLVQIPANGSWQWEDGSSLSYNQLTLVEIPKGSCAVYGSSFKAYTEDCANLNTYICMKRAVGGGGSGGGGSGGGGSGGGGSGGGGSGGGGSISAMVRSPRGPTIKPCPPCKCPAPNLLGGPSVFIFPPKIKDVLMISLSPIVTCVVVDVSEDDPDVQISWFVNNVEVHTAQTQTHREDYNSTLRVVSALPIQHQDWMSGKEFKCKVNNKDLPAPIERTISKPKGSVRAPQVYVLPPPEEEMTKKQVTLTCMVTDFMPEDIYVEWTNNGKTELNYKNTEPVLDSDGSYFMYSKLRVEKKNWVERNSYSCSVVHEGLHNHHTTKSFSRTPGK | 1.65 | 0.894
5 | MM5, mFc2-mNKG2D (aa94-232)-RS(G3S)2-mNKG2D (aa94-232) (Fc fusion, also called C-terminal, no linker) ISAMVRSPRGPTIKPCPPCKCPAPNLLGGPSVFIFPPKIKDVLMISLSPIVTCVVVDVSEDDPDVQISWFVNNVEVHTAQTQTHREDYNSTLRVVSALPIQHQDWMSGKEFKCKVNNKDLPAPIERTISKPKGSVRAPQVYVLPPPEEEMTKKQVTLTCMVTDFMPEDIYVEWTNNGKTELNYKNTEPVLDSDGSYFMYSKLRVEKKNWVERNSYSCSVVHEGLHNHHTTKSFSRTPGKFQPVLCNKEVPVSSREGYCGPCPNNWICHRNNCYQFFNEEKTWNQSQASCLSQNSSLLKIYSKEEQDFLKLVKSYHWMGLVQIPANGSWQWEDGSSLSYNQLTLVEIPKGSCAVYGSSFKAYTEDCANLNTYICMKRAVRSGGGSGGGSFQPVLCNKEVPVSSREGYCGPCPNNWICHRNNCYQFFNEEKTWNQSQASCLSQNSSLLKIYSKEEQDFLKLVKSYHWMGLVQIPANGSWQWEDGSSLSYNQLTLVEIPKGSCAVYGSSFKAYTEDCANLNTYICMKRAV | 3.02 | 0.738
6 | MM6, mFc2-(G4S)2-mNKG2D (aa94-232)-RS(G3S)2-mNKG2D (aa94-232) (Fc fusion, also called C-terminal, 10 aa linker) ISAMVRSPRGPTIKPCPPCKCPAPNLLGGPSVFIFPPKIKDVLMISLSPIVTCVVVDVSEDDPDVQISWFVNNVEVHTAQTQTHREDYNSTLRVVSALPIQHQDWMSGKEFKCKVNNKDLPAPIERTISKPKGSVRAPQVYVLPPPEEEMTKKQVTLTCMVTDFMPEDIYVEWTNNGKTELNYKNTEPVLDSDGSYFMYSKLRVEKKNWVERNSYSCSVVHEGLHNHHTTKSFSRTPGKGGGGSGGGGSFQPVLCNKEVPVSSREGYCGPCPNNWICHRNNCYQFFNEEKTWNQSQASCLSQNSSLLKIYSKEEQDFLKLVKSYHWMGLVQIPANGSWQWEDGSSLSYNQLTLVEIPKGSCAVYGSSFKAYTEDCANLNTYICMKRAVRSGGGSGGGSFQPVLCNKEVPVSSREGYCGPCPNNWICHRNNCYQFFNEEKTWNQSQASCLSQNSSLLKIYSKEEQDFLKLVKSYHWMGLVQIPANGSWQWEDGSSLSYNQLTLVEIPKGSCAVYGSSFKAYTEDCANLNTYICMKRAV | 0.668 | 1.15
7 | MM7, mFc2-(G4S)4-mNKG2D (aa94-232)-RS(G3S)2-mNKG2D (aa94-232) (Fc fusion, also called C-terminal variant with a linker length of 20 aa) ISAMVRSPRGPTIKPCPPCKCPAPNLLGGPSVFIFPPKIKDVLMISLSPIVTCVVVDVSEDDPDVQISWFVNNVEVHTAQTQTHREDYNSTLRVVSALPIQHQDWMSGKEFKCKVNNKDLPAPIERTISKPKGSVRAPQVYVLPPPEEEMTKKQVTLTCMVTDFMPEDIYVEWTNNGKTELNYKNTEPVLDSDGSYFMYSKLRVEKKNWVERNSYSCSVVHEGLHNHHTTKSFSRTPGKGGGGSGGGGSGGGGSGGGGSFQPVLCNKEVPVSSREGYCGPCPNNWICHRNNCYQFFNEEKTWNQSQASCLSQNSSLLKIYSKEEQDFLKLVKSYHWMGLVQIPANGSWQWEDGSSLSYNQLTLVEIPKGSCAVYGSSFKAYTEDCANLNTYICMKRAVRSGGGSGGGSFQPVLCNKEVPVSSREGYCGPCPNNWICHRNNCYQFFNEEKTWNQSQASCLSQNSSLLKIYSKEEQDFLKLVKSYHWMGLVQIPANGSWQWEDGSSLSYNQLTLVEIPKGSCAVYGSSFKAYTEDCANLNTYICMKRAV | 1.5 | 13
8 | MM8, mFc2-(G4S)6-mNKG2D (aa94-232)-RS(G3S)2-mNKG2D (aa94-232) (Fc fusion, also called C-terminal variant with a linker length of 30 aa) ISAMVRSPRGPTIKPCPPCKCPAPNLLGGPSVFIFPPKIKDVLMISLSPIVTCVVVDVSEDDPDVQISWFVNNVEVHTAQTQTHREDYNSTLRVVSALPIQHQDWMSGKEFKCKVNNKDLPAPIERTISKPKGSVRAPQVYVLPPPEEEMTKKQVTLTCMVTDFMPEDIYVEWTNNGKTELNYKNTEPVLDSDGSYFMYSKLRVEKKNWVERNSYSCSVVHEGLHNHHTTKSFSRTPGKGGGGSGGGGSGGGGSGGGGSGGGGSGGGGSFQPVLCNKEVPVSSREGYCGPCPNNWICHRNNCYQFFNEEKTWNQSQASCLSQNSSLLKIYSKEEQDFLKLVKSYHWMGLVQIPANGSWQWEDGSSLSYNQLTLVEIPKGSCAVYGSSFKAYTEDCANLNTYICMKRAVRSGGGSGGGSFQPVLCNKEVPVSSREGYCGPCPNNWICHRNNCYQFFNEEKTWNQSQASCLSQNSSLLKIYSKEEQDFLKLVKSYHWMGLVQIPANGSWQWEDGSSLSYNQLTLVEIPKGSCAVYGSSFKAYTEDCANLNTYICMKRAV | 0.624 | 15.6
